Experimental data as given in the supplement of paper PMC10567573.

B1: CLCN6 (parent)
chain: FQSISLRKIQFNFPYFRSDRDKRD

Variants of: B1
Assay: protein stability index of a GFP-peptide fusion (GPS, HEK-293T) (PSI 1-6); higher = more stable
Settings: c terminus: a fixed tail appended
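Also: lentivirally expressed fusions sorted by FACS into six bins by GFP to DsRed ratio, PSI derived from sequencing read proportions per bin multiplied by bin number.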

Row | Variant | protein stability index
1 | FQSIMLRKIQFNFPYFRSDRDKRD [S5M] | 1.46
2 | FQSIKLRKIQFNFPYFRSDRDKRD [S5K] | 1.7
3 | FQSINLRKIQFNFPYFRSDRDKRD [S5N] | 1.82
4 | FQSIFLRKIQFNFPYFRSDRDKRD [S5F] | 2.62
5 | FQSIELRKIQFNFPYFRSDRDKRD [S5E] | 2.21
6 | FQSIHLRKIQFNFPYFRSDRDKRD [S5H] | 1.74
7 | FQSIALRKIQFNFPYFRSDRDKRD [S5A] | 1.82
8 | FQSIRLRKIQFNFPYFRSDRDKRD [S5R] | 1.77
9 | FQSIQLRKIQFNFPYFRSDRDKRD [S5Q] | 1.66
10 | FQSIPLRKIQFNFPYFRSDRDKRD [S5P] | 1.82
11 | FQSIDLRKIQFNFPYFRSDRDKRD [S5D] | 1.96
12 | FQSIGLRKIQFNFPYFRSDRDKRD [S5G] | 1.02
13 | FQSITLRKIQFNFPYFRSDRDKRD [S5T] | 1.42
14 | FQSIYLRKIQFNFPYFRSDRDKRD [S5Y] | 1.98
15 | FQSGSLRKIQFNFPYFRSDRDKRD [I4G] | 2.02
16 | FQSDSLRKIQFNFPYFRSDRDKRD [I4D] | 2.05
17 | FQSQSLRKIQFNFPYFRSDRDKRD [I4Q] | 1.9
18 | FQSESLRKIQFNFPYFRSDRDKRD [I4E] | 1.91
19 | FQSYSLRKIQFNFPYFRSDRDKRD [I4Y] | 1.42
20 | FQSNSLRKIQFNFPYFRSDRDKRD [I4N] | 1.98
21 | FQSLSLRKIQFNFPYFRSDRDKRD [I4L] | 2.44
22 | FQSSSLRKIQFNFPYFRSDRDKRD [I4S] | 1.74
23 | FQSASLRKIQFNFPYFRSDRDKRD [I4A] | 2.71
24 | FQSPSLRKIQFNFPYFRSDRDKRD [I4P] | 2.19

Row | Variant | protein stability index
25 | FQSMSLRKIQFNFPYFRSDRDKRD [I4M] | 3
26 | FQSTSLRKIQFNFPYFRSDRDKRD [I4T] | 2.21
27 | FQSVSLRKIQFNFPYFRSDRDKRD [I4V] | 1.98
28 | DQSISLRKIQFNFPYFRSDRDKRD [F1D] | 3.34
29 | QQSISLRKIQFNFPYFRSDRDKRD [F1Q] | 3.52
30 | HQSISLRKIQFNFPYFRSDRDKRD [F1H] | 2.83
31 | NQSISLRKIQFNFPYFRSDRDKRD [F1N] | 3.76
32 | TQSISLRKIQFNFPYFRSDRDKRD [F1T] | 2.77
33 | RQSISLRKIQFNFPYFRSDRDKRD [F1R] | 2.07
34 | KQSISLRKIQFNFPYFRSDRDKRD [F1K] | 3.31
35 | AQSISLRKIQFNFPYFRSDRDKRD [F1A] | 2.6
36 | EQSISLRKIQFNFPYFRSDRDKRD [F1E] | 4
37 | IQSISLRKIQFNFPYFRSDRDKRD [F1I] | 2.16
38 | PQSISLRKIQFNFPYFRSDRDKRD [F1P] | 2.29
39 | SQSISLRKIQFNFPYFRSDRDKRD [F1S] | 3.4
40 | CQSISLRKIQFNFPYFRSDRDKRD [F1C] | 2.4
41 | GQSISLRKIQFNFPYFRSDRDKRD [F1G] | 2.16
42 | FKSISLRKIQFNFPYFRSDRDKRD [Q2K] | 2.5
43 | FSSISLRKIQFNFPYFRSDRDKRD [Q2S] | 1.96
44 | FESISLRKIQFNFPYFRSDRDKRD [Q2E] | 2.69
45 | FRSISLRKIQFNFPYFRSDRDKRD [Q2R] | 1.91
46 | FVSISLRKIQFNFPYFRSDRDKRD [Q2V] | 5.36
47 | FISISLRKIQFNFPYFRSDRDKRD [Q2I] | 1.06
48 | FGSISLRKIQFNFPYFRSDRDKRD [Q2G] | 1.54

Row | Variant | protein stability index
49 | FASISLRKIQFNFPYFRSDRDKRD [Q2A] | 2.17
50 | FYSISLRKIQFNFPYFRSDRDKRD [Q2Y] | 1.33
51 | FTSISLRKIQFNFPYFRSDRDKRD [Q2T] | 2.73
52 | FDSISLRKIQFNFPYFRSDRDKRD [Q2D] | 2.46
53 | FLSISLRKIQFNFPYFRSDRDKRD [Q2L] | 2.31
54 | FCSISLRKIQFNFPYFRSDRDKRD [Q2C] | 1.9
55 | FNSISLRKIQFNFPYFRSDRDKRD [Q2N] | 1.62
56 | FFSISLRKIQFNFPYFRSDRDKRD [Q2F] | 1.53
57 | FQSISLCKIQFNFPYFRSDRDKRD [R7C] | 1.81
58 | FQSISLAKIQFNFPYFRSDRDKRD [R7A] | 2.38
59 | FQSISLMKIQFNFPYFRSDRDKRD [R7M] | 1.21
60 | FQSISLPKIQFNFPYFRSDRDKRD [R7P] | 3.68
61 | FQSISLQKIQFNFPYFRSDRDKRD [R7Q] | 1.62
62 | FQSISLVKIQFNFPYFRSDRDKRD [R7V] | 2.97
63 | FQSISLLKIQFNFPYFRSDRDKRD [R7L] | 1.37
64 | FQSISLKKIQFNFPYFRSDRDKRD [R7K] | 1.59
65 | FQSISLSKIQFNFPYFRSDRDKRD [R7S] | 2.4
66 | FQSISLWKIQFNFPYFRSDRDKRD [R7W] | 1.77
67 | FQSISLNKIQFNFPYFRSDRDKRD [R7N] | 1.97
68 | FQSISLHKIQFNFPYFRSDRDKRD [R7H] | 2.02
69 | FQSISLEKIQFNFPYFRSDRDKRD [R7E] | 2.56
70 | FQSISLTKIQFNFPYFRSDRDKRD [R7T] | 1.78
71 | FQSISLIKIQFNFPYFRSDRDKRD [R7I] | 1.77
72 | FQSISLRNIQFNFPYFRSDRDKRD [K8N] | 2.18

Row | Variant | protein stability index
73 | FQSISLRPIQFNFPYFRSDRDKRD [K8P] | 2.92
74 | FQSISLRIIQFNFPYFRSDRDKRD [K8I] | 2.78
75 | FQSISLRSIQFNFPYFRSDRDKRD [K8S] | 1.31
76 | FQSISLRTIQFNFPYFRSDRDKRD [K8T] | 1.44
77 | FQSISLRQIQFNFPYFRSDRDKRD [K8Q] | 2.12
78 | FQSISLREIQFNFPYFRSDRDKRD [K8E] | 2.63
79 | FQSISLRCIQFNFPYFRSDRDKRD [K8C] | 1.75
80 | FQSISLRWIQFNFPYFRSDRDKRD [K8W] | 2.43
81 | FQSISLRMIQFNFPYFRSDRDKRD [K8M] | 2.08
82 | FQSISLRYIQFNFPYFRSDRDKRD [K8Y] | 2.09
83 | FQSISLRRIQFNFPYFRSDRDKRD [K8R] | 1.74
84 | FQSISLRHIQFNFPYFRSDRDKRD [K8H] | 2.92
85 | FQSISLRLIQFNFPYFRSDRDKRD [K8L] | 2.64
86 | FQSISCRKIQFNFPYFRSDRDKRD [L6C] | 1.53
87 | FQSISQRKIQFNFPYFRSDRDKRD [L6Q] | 2.13
88 | FQSISERKIQFNFPYFRSDRDKRD [L6E] | 2.08
89 | FQSISNRKIQFNFPYFRSDRDKRD [L6N] | 1.68
90 | FQSISPRKIQFNFPYFRSDRDKRD [L6P] | 2.78
91 | FQSISARKIQFNFPYFRSDRDKRD [L6A] | 2.68
92 | FQSISTRKIQFNFPYFRSDRDKRD [L6T] | 2.59
93 | FQSISHRKIQFNFPYFRSDRDKRD [L6H] | 2.03
94 | FQSISSRKIQFNFPYFRSDRDKRD [L6S] | 1.66
